The values that follow are results of earlier work, collected in publication PMC4125106.

In the data set the target is insulin receptor (Drosophila melanogaster) (UniProt P09208). Briefly: competitive binding.
Chain of UniProt P09208 (P09208 44-1310): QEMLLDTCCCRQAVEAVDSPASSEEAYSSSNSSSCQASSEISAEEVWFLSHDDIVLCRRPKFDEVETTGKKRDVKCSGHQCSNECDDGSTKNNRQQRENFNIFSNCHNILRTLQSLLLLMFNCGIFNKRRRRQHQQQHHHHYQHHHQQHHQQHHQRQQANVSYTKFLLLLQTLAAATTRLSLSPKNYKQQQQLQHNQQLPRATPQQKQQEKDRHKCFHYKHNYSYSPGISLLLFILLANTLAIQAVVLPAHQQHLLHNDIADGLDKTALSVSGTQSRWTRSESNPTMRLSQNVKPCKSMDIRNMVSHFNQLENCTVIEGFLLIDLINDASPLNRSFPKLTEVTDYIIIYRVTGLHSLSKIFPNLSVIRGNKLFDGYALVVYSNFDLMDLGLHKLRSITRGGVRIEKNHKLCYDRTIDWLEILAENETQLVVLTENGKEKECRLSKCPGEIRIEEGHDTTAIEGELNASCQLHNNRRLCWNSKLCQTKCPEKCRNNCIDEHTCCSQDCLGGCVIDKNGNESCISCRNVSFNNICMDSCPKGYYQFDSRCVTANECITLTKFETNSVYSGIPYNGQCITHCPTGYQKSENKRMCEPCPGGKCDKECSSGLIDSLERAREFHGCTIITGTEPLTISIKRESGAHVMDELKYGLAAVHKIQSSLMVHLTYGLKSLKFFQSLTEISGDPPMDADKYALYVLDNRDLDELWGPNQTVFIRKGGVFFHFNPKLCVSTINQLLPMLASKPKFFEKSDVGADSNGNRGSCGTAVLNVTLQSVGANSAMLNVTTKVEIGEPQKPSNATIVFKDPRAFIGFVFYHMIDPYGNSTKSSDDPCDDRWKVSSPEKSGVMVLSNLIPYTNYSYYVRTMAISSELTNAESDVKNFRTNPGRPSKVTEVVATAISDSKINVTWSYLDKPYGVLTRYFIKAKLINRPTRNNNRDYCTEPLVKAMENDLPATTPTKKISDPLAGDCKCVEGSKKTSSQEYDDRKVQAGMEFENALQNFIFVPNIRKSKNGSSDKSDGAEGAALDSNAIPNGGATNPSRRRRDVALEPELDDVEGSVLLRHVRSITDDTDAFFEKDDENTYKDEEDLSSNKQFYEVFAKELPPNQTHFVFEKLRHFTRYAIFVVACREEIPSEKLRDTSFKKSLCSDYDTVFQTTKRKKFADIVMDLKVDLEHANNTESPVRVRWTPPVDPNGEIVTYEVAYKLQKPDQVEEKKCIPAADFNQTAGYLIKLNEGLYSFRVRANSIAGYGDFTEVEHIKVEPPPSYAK

With Ilp5 (from UniProt Q7KUD5), the Kd is 0.555 nM.

For orientation: Kd means the free concentration of one partner at which half of the binding sites on the other are occupied at equilibrium, for simple one-to-one binding.
